Measured values reported in patent publication US20040048327A1 (GEORGIA TECH RESEARCH, published 2004).
Numbered stars: 1 amine (or outer) side, 2 acyl side, 3 side chain; on linkers, the order of the positions; unused ones are H or OH. Square brackets hold non-standard residues; d marks the D form. Ends that are not written are not given here. * marks the point of attachment. AAsp = aza-Asp, O=C(N(CC(=O)[*:3])N[*:1])[*:2]; azaAsp = O=C(N(CC(=O)[*:3])N[*:1])[*:2]; PhPr = N-terminal cap as named (PhPr); trans‑EP‑CH2CH2Ph = not defined here; Hydrocinnamoyl = O=C(CCc1ccccc1)*; Cbz = O=C(OCc1ccccc1)*; NHBn = c1ccc(CN*)cc1

T1: caspase-3 (UniProt P42574 29-277, limits assumed)
T1 sequence (looked up): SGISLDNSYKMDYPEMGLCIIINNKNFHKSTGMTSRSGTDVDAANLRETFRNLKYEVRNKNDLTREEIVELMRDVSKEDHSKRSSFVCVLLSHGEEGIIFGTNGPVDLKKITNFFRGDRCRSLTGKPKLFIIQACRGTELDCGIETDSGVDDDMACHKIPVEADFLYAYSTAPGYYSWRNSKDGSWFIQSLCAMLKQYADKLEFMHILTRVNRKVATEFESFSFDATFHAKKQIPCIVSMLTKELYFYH

T2: autolytically stable caspase-1 variant (D381 E) (UniProt P29466 120-404, limits assumed)
T2 sequence (looked up): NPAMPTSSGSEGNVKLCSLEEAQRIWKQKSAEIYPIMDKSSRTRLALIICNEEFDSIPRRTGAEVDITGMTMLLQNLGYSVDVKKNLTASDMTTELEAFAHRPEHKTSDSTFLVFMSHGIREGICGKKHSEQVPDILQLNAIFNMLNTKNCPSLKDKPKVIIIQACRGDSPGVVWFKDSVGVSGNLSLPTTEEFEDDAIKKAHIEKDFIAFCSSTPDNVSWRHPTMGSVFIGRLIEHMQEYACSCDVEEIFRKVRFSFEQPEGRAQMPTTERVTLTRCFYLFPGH

B1: Cbz-Asp-Glu-Val-AAsp-(2S, 3S)-EP-COOEt (peptide)
peptide: Cbz-DEVD
modifications: not fully specified (residue 4, C-terminus); printed as Cbz-Asp-Glu-Val-AAsp-(2S, 3S)-EP-COOEt
B2: Cbz-Asp-Glu-Val-AAsp-(2R, 3R)-EP-COOEt (peptide)
peptide: Cbz-DEVD
modifications: not fully specified (residue 4, C-terminus); printed as Cbz-Asp-Glu-Val-AAsp-(2R, 3R)-EP-COOEt

The binders below were run against T1, caspase-3 (assay: cell-based or functional assay).

Binder | k2 [M⁻¹ s⁻¹]
PhPr-Val-Ala-[AAsp]-{(S,S)‑EP‑CONHCH2CH(OH)Ph} [PhPr-Val-Ala-AAsp-(S,S)-EP-CONHCH2CH(OH)Ph] | 510
B1 | 1.07e+06
Cbz-Glu-Val-[azaAsp]-{(2S,3S)‑EP‑COOEt} [Cbz-Glu-Val-AAsp-(2S,3S)-EP-COOEt] | 50500
Cbz-IET[azaAsp]-{(S,S)‑EP‑CO-Ala-NHBn} [Cbz-Ile-Glu-Thr-AAsp-(S,S)-EP-CO-Ala-NHCH2Ph] | 3050
Cbz-DEV[azaAsp]-{(S,S)‑EP‑CONHCH2Ph} [Cbz-Asp-Glu-Val-AAsp-(S,S)-EP-CONHCH2Ph] | 1.1e+06
Cbz-Val-[azaAsp]-{(S,S)‑EP‑COOEt} [Cbz-Val-AAsp-(S,S)-EP-COOEt] | 3650
Cbz-DEV[azaAsp]-{(S,S)‑EP‑COOCH2Ph} [Cbz-Asp-Glu-Val-AAsp-(S,S)-EP-COOCH2Ph] | 1.92e+06
B2 | 464000
Cbz-DEV[azaAsp]-{(S,S)‑EP‑CO-Phe-NH2} [Cbz-Asp-Glu-Val-AAsp-(S,S)-EP-CO-Phe-NH2] | 722000
Hydrocinnamoyl-Val-Ala-[AAsp]-{(S,S)‑EP‑CONHCH2CH3} [PhPr-Val-Ala-AAsp-(S,S)-EP-CONHCH2CH3] | 1910
Hydrocinnamoyl-Val-Ala-[AAsp]-{(S,S)‑EP‑COOEt} [PhPr-Val-Ala-AAsp-(S,S)-EP-COOEt] | 1040
PhPr-Val-Ala-[AAsp]-{(S,S)‑EP‑CO-Phe-NH2} [PhPr-Val-Ala-AAsp-(S,S)-EP-CO-Phe-NH2] | 625
Cbz-IET[azaAsp]-{(S,S)‑EP‑COOCH2Ph} [Cbz-Ile-Glu-Thr-AAsp-(S,S)-EP-COOCH2Ph] | 9540
Cbz-Val-[AAsp]-{(trans)‑EP‑CH2CH2Ph} [Cbz-Val-AAsp-(trans)-EP-CH2CH2Ph] | 310
Cbz-Glu-Val-[azaAsp]-{(S,S)‑EP‑CONHCH2CH2Ph} [Cbz-Glu-Val-AAsp-(S,S)-EP-CONHCH2CH2Ph] | 27300
Cbz-IET[azaAsp]-{(R,R)‑EP‑COOCH2Ph} [Cbz-Ile-Glu-Thr-AAsp-(R, R)-EP-COOCH2Ph] | 3120
Cbz-IET[azaAsp]-{(2R,3R)‑EP‑COOEt} [Cbz-Ile-Glu-Thr-AAsp-(2R,3R)-EP-COOEt] | 2630
PhPr-Val-Ala-[AAsp]-{trans‑EP‑COOCH2Ph} [PhPr-Val-Ala-AAsp-trans-EP-COOCH2Ph] | 680
Hydrocinnamoyl-Val-Ala-[AAsp]-{(S,S)‑EP‑COOCH2CH2Ph} [PhPr-Val-Ala-AAsp-(S,S)-EP-COOCH2CH2Ph] | 2110
PhPr-Val-Ala-[AAsp]-{(S,S)‑EP‑CONHCH2CH2Ph} [PhPr-Val-Ala-AAsp-(S,S)-EP-CONHCH2CH2Ph] | 1110
Cbz-IET[azaAsp]-{(2S,3S)‑EP‑COOEt} [Cbz-Ile-Glu-Thr-AAsp-(2S, 3S)-EP-COOEt] | 4080
Cbz-Glu-Val-[azaAsp]-{(R,R)‑EP‑CO-Phe-NH2} [Cbz-Glu-Val-AAsp-(R,R)-EP-CO-Phe-NH2] | 470
PhPr-Val-Ala-[AAsp]-{(S,S)‑EP‑CO-Tyr-NH2} [PhPr-Val-Ala-AAsp-(S,S)-EP-CO-Tyr-NH2] | 87
PhPr-Val-Ala-[AAsp]-{(S,S)‑EP‑CO-Ala-NHBn} [PhPr-Val-Ala-AAsp-(S,S)-EP-CO-Ala-NHCH2Ph] | 260
PhPr-Val-Ala-[AAsp]-{(2S,3S)‑EP‑COOCH2Ph} [PhPr-Val-Ala-AAsp-(2S, 3S)-EP-COOCH2Ph] | 1470
PhPr-Val-Ala-[AAsp]-{(S,S)‑EP‑CO-Leu-NH2} [PhPr-Val-Ala-AAsp-(S,S)-EP-CO-Leu-NH2] | 420
Cbz-Val-[azaAsp]-{(S,S)‑EP‑COOH} [Cbz-Val-AAsp-(S, S)-EP-COOH] | 1110
Hydrocinnamoyl-Val-Ala-[AAsp]-{(S,S)‑EP‑CONHCH2Ph} [PhPr-Val-Ala-AAsp-(S,S)-EP-CONHCH2Ph] | 1610
Cbz-Val-[AAsp]-{(trans)‑EP‑Ph‑4‑Cl} [Cbz-Val-AAsp-(trans)-EP-Ph-4-Cl] | 145

Each binder was assayed against T2, autolytically stable caspase-1 variant … (assay: cell-based or functional assay).

Binder | k2 [M⁻¹ s⁻¹]
PhPr-Val-Ala-[AAsp]-{(S,S)‑EP‑CONHCH2CH(OH)Ph} [PhPr-Val-Ala-AAsp-(S,S)-EP-CONHCH2CH(OH)Ph] | 12300
Hydrocinnamoyl-Val-Ala-[AAsp]-{(R,R)‑EP‑CONHCH2CH2Ph} [PhPr-Val-Ala-AAsp-(R,R)-EP-CONHCH2CH2Ph] | 950
B1 | 11800
Cbz-Glu-Val-[azaAsp]-{(2S,3S)‑EP‑COOEt} [Cbz-Glu-Val-AAsp-(2S,3S)-EP-COOEt] | 58500
Hydrocinnamoyl-Val-Ala-[AAsp]-{(2R,3R)‑EP‑COOCH2Ph} [PhPr-Val-Ala-AAsp-(2R, 3R)-EP-COOCH2Ph] | 1860
Hydrocinnamoyl-Val-Ala-[AAsp]-{(R,R)‑EP‑CONHCH2Ph} [PhPr-Val-Ala-AAsp-(R,R)-EP-CONHCH2Ph] | 1630
Cbz-DEV[azaAsp]-{(S,S)‑EP‑CONHCH2Ph} [Cbz-Asp-Glu-Val-AAsp-(S,S)-EP-CONHCH2Ph] | 25400
Cbz-DEV[azaAsp]-{(S,S)‑EP‑COOCH2Ph} [Cbz-Asp-Glu-Val-AAsp-(S,S)-EP-COOCH2Ph] | 54700
B2 | 4320
Cbz-DEV[azaAsp]-{(S,S)‑EP‑CO-Phe-NH2} [Cbz-Asp-Glu-Val-AAsp-(S,S)-EP-CO-Phe-NH2] | 9250
Hydrocinnamoyl-Val-Ala-[AAsp]-{(S,S)‑EP‑COOEt} [PhPr-Val-Ala-AAsp-(S,S)-EP-COOEt] | 32200
PhPr-Val-Ala-[AAsp]-{(S,S)‑EP‑CO-Phe-NH2} [PhPr-Val-Ala-AAsp-(S,S)-EP-CO-Phe-NH2] | 32700
Cbz-IET[azaAsp]-{(S,S)‑EP‑COOCH2Ph} [Cbz-Ile-Glu-Thr-AAsp-(S,S)-EP-COOCH2Ph] | 45800
Cbz-Glu-Val-[azaAsp]-{(S,S)‑EP‑CONHCH2CH2Ph} [Cbz-Glu-Val-AAsp-(S,S)-EP-CONHCH2CH2Ph] | 41100
Cbz-IET[azaAsp]-{(R,R)‑EP‑COOCH2Ph} [Cbz-Ile-Glu-Thr-AAsp-(R, R)-EP-COOCH2Ph] | 13000
Cbz-IET[azaAsp]-{(2R,3R)‑EP‑COOEt} [Cbz-Ile-Glu-Thr-AAsp-(2R,3R)-EP-COOEt] | 13300

Binder | k2 [M⁻¹ s⁻¹]
Hydrocinnamoyl-Val-Ala-[AAsp]-{(R,R)‑EP‑CO-Phe-NH2} [PhPr-Val-Ala-AAsp-(R,R)-EP-CO-Phe-NH2] | 330
PhPr-Val-Ala-[AAsp]-{trans‑EP‑COOCH2Ph} [PhPr-Val-Ala-AAsp-trans-EP-COOCH2Ph] | 18100
Hydrocinnamoyl-Val-Ala-[AAsp]-{(R,R)‑EP‑COOEt} [PhPr-Val-Ala-AAsp-(R,R)-EP-COOEt] | 6290
Hydrocinnamoyl-Val-Ala-[AAsp]-{(S,S)‑EP‑COOCH2CH2Ph} [PhPr-Val-Ala-AAsp-(S,S)-EP-COOCH2CH2Ph] | 56600
PhPr-Val-Ala-[AAsp]-{(S,S)‑EP‑CONHCH2CH2Ph} [PhPr-Val-Ala-AAsp-(S,S)-EP-CONHCH2CH2Ph] | 17200
Cbz-IET[azaAsp]-{(2S,3S)‑EP‑COOEt} [Cbz-Ile-Glu-Thr-AAsp-(2S, 3S)-EP-COOEt] | 12400
Cbz-Glu-Val-[azaAsp]-{(R,R)‑EP‑CO-Phe-NH2} [Cbz-Glu-Val-AAsp-(R,R)-EP-CO-Phe-NH2] | 1040
PhPr-Val-Ala-[AAsp]-{(S,S)‑EP‑CO-Tyr-NH2} [PhPr-Val-Ala-AAsp-(S,S)-EP-CO-Tyr-NH2] | 3240
PhPr-Val-Ala-[AAsp]-{(S,S)‑EP‑CO-Ala-NHBn} [PhPr-Val-Ala-AAsp-(S,S)-EP-CO-Ala-NHCH2Ph] | 13400
PhPr-Val-Ala-[AAsp]-{(2S,3S)‑EP‑COOCH2Ph} [PhPr-Val-Ala-AAsp-(2S, 3S)-EP-COOCH2Ph] | 52100
PhPr-Val-Ala-[AAsp]-{(S,S)‑EP‑CO-Leu-NH2} [PhPr-Val-Ala-AAsp-(S,S)-EP-CO-Leu-NH2] | 26100
Hydrocinnamoyl-Val-Ala-[AAsp]-{(R,R)‑EP‑CONHCH2CH(OH)Ph} [PhPr-Val-Ala-AAsp-(R,R)-EP-CONHCH2CH(OH)Ph] | 400
Hydrocinnamoyl-Val-Ala-[AAsp]-{(S,S)‑EP‑CONHCH2Ph} [PhPr-Val-Ala-AAsp-(S,S)-EP-CONHCH2Ph] | 65900
Hydrocinnamoyl-Val-Ala-[AAsp]-{(R,R)‑EP‑CO-Ala-NHBn} [PhPr-Val-Ala-AAsp-(R,R)-EP-CO-Ala-NHCH2Ph] | 268
Hydrocinnamoyl-Val-Ala-[AAsp]-{trans‑EP‑CH2CH2Ph} (reading uncertain; also: printed as PhPr-Val-Ala-AAsp-trans-EP-CH2CH2Ph) [PhPr-Val-Ala-AAsp-trans-EP-CH2CH2Ph] | 300
